Results as given in the Immune Epitope Database (IEDB).

Columns and labels:
Experiment in all cases: IEDB peptide-MHC binding, cellular MHC/competitive/fluorescence; ≥ and ≤ were set here for values at or beyond the usual limits of such assays
[1] = target: HLA-A*02:01
[2] = target: HLA-A*02:02
[3] = target: HLA-A*02:03
[4] = target: HLA-A*02:06
[5] = target: HLA-A*68:02
[6] = source organism: Vaccinia virus WR
[7] = source organism: Influenza A virus
[8] = source organism: Mammarenavirus whitewaterense
[9] = source organism: Mammarenavirus guanaritoense

Sequence: PTIEDDKIVT
- IC50 [1, 6]: ≥ 70 µM
- IC50 [2, 6]: 13.8 µM
- IC50 [3, 6]: 20.6 µM
- IC50 [4, 6]: ≥ 70 µM
- IC50 [5, 6]: ≥ 70 µM

Sequence: SITPNNLNKI
- IC50 [1, 6]: ≥ 70 µM
- IC50 [2, 6]: 14.9 µM
- IC50 [3, 6]: ≥ 70 µM
- IC50 [4, 6]: ≥ 70 µM
- IC50 [5, 6]: ≥ 70 µM

Sequence: KIQLFSDFTI
- IC50 [1, 6]: ≥ 70 µM
- IC50 [2, 6]: ≥ 70 µM
- IC50 [3, 6]: ≥ 70 µM
- IC50 [4, 6]: ≥ 70 µM
- IC50 [5, 6]: ≥ 70 µM

Sequence: TQFNFNGHT
- IC50 [1, 6]: ≥ 70 µM
- IC50 [2, 6]: 43.4 µM
- IC50 [3, 6]: 14.4 µM
- IC50 [4, 6]: 10 µM
- IC50 [5, 6]: 52.2 µM

Sequence: PAHKSQLV
- IC50 [1, 7]: ≥ 70 µM
- IC50 [2, 7]: ≥ 70 µM
- IC50 [3, 7]: ≥ 70 µM
- IC50 [4, 7]: ≥ 70 µM
- IC50 [5, 7]: ≥ 70 µM

Sequence: PTPKKMNIVT
- IC50 [1, 6]: ≥ 70 µM
- IC50 [2, 6]: 65.8 µM
- IC50 [3, 6]: 55.7 µM
- IC50 [4, 6]: ≥ 70 µM
- IC50 [5, 6]: ≥ 70 µM

Sequence: TIESAKTKI
- IC50 [1, 6]: 15.2 µM
- IC50 [2, 6]: 16.3 µM
- IC50 [3, 6]: 54.1 µM
- IC50 [4, 6]: 51.4 µM
- IC50 [5, 6]: 52.6 µM

Sequence: LAIKNYYRKT
- IC50 [1, 6]: ≥ 70 µM
- IC50 [2, 6]: 36.8 µM
- IC50 [3, 6]: 7.18 µM
- IC50 [4, 6]: ≥ 70 µM
- IC50 [5, 6]: 39.7 µM

Sequence: QTRSKAGLLV
- IC50 [1, 7]: ≥ 70 µM
- IC50 [2, 7]: ≥ 70 µM
- IC50 [3, 7]: 22 µM
- IC50 [4, 7]: ≥ 70 µM
- IC50 [5, 7]: 50.9 µM

Sequence: YVPSAEDNYL
- IC50 [1, 6]: ≥ 70 µM
- IC50 [2, 6]: ≥ 70 µM
- IC50 [3, 6]: ≥ 70 µM
- IC50 [4, 6]: ≥ 70 µM
- IC50 [5, 6]: ≥ 70 µM

Sequence: LAYYNSCML
- IC50 [1, 6]: 46.1 µM
- IC50 [2, 6]: 12.8 µM
- IC50 [3, 6]: 15.5 µM
- IC50 [4, 6]: 21.5 µM
- IC50 [5, 6]: 13.3 µM

Sequence: ITETIPIGM
- IC50 [1, 6]: ≥ 70 µM
- IC50 [2, 6]: 12.4 µM
- IC50 [3, 6]: 42.8 µM
- IC50 [4, 6]: 7.69 µM
- IC50 [5, 6]: 6.13 µM

Sequence: YCHGILLKDV
- IC50 [1, 8]: 11.4 µM
- IC50 [2, 8]: ≥ 70 µM
- IC50 [3, 8]: 13 µM
- IC50 [4, 8]: 15 µM
- IC50 [5, 8]: 57.6 µM

Sequence: PTDMLKLFT
- IC50 [1, 6]: ≥ 70 µM
- IC50 [2, 6]: 29.1 µM
- IC50 [3, 6]: 47 µM
- IC50 [4, 6]: 69.8 µM
- IC50 [5, 6]: ≥ 70 µM

Sequence: PAEMLANI
- IC50 [1, 7]: ≥ 70 µM
- IC50 [2, 7]: ≥ 70 µM
- IC50 [3, 7]: ≥ 70 µM
- IC50 [4, 7]: ≥ 70 µM
- IC50 [5, 7]: ≥ 70 µM

Sequence: PLKDVERLQM
- IC50 [1, 6]: 45.5 µM
- IC50 [2, 6]: 6.16 µM
- IC50 [3, 6]: 44 µM
- IC50 [4, 6]: 37.4 µM
- IC50 [5, 6]: ≥ 70 µM

Sequence: KAMHDKKIDI
- IC50 [1, 6]: 50.6 µM
- IC50 [2, 6]: ≥ 70 µM
- IC50 [3, 6]: 46.2 µM
- IC50 [4, 6]: 26.4 µM
- IC50 [5, 6]: ≥ 70 µM

Sequence: LIQYRQQLEL
- IC50 [1, 6]: ≥ 70 µM
- IC50 [2, 6]: 32.8 µM
- IC50 [3, 6]: 19.5 µM
- IC50 [4, 6]: 52.9 µM
- IC50 [5, 6]: ≥ 70 µM

Sequence: DMICCDSRIV
- IC50 [1, 6]: 34.7 µM
- IC50 [2, 6]: 11.3 µM
- IC50 [3, 6]: 6.08 µM
- IC50 [4, 6]: 18.9 µM
- IC50 [5, 6]: 13.3 µM

Sequence: DAKRNSKSL
- IC50 [1, 6]: ≥ 70 µM
- IC50 [2, 6]: 13.7 µM
- IC50 [3, 6]: 49.7 µM
- IC50 [4, 6]: ≥ 70 µM
- IC50 [5, 6]: ≥ 70 µM

Sequence: PLSPDTCLLA
- IC50 [1, 6]: 6.97 µM
- IC50 [2, 6]: 11.2 µM
- IC50 [3, 6]: 9.31 µM
- IC50 [4, 6]: 19.9 µM
- IC50 [5, 6]: 15.2 µM

Sequence: AARLKRSAT
- IC50 [1, 6]: ≥ 70 µM
- IC50 [2, 6]: 12.5 µM
- IC50 [3, 6]: 10.5 µM
- IC50 [4, 6]: 63.8 µM
- IC50 [5, 6]: ≥ 70 µM

Sequence: PTEMVDVSM
- IC50 [1, 6]: 47.4 µM
- IC50 [2, 6]: 10.6 µM
- IC50 [3, 6]: 41.3 µM
- IC50 [4, 6]: 40.2 µM
- IC50 [5, 6]: 52.2 µM

Sequence: NTTIEKEI
- IC50 [1, 7]: 50.7 µM
- IC50 [2, 7]: ≥ 70 µM
- IC50 [3, 7]: ≥ 70 µM
- IC50 [4, 7]: ≥ 70 µM
- IC50 [5, 7]: ≥ 70 µM

Sequence: SAAFEDLRL
- IC50 [1, 7]: ≥ 70 µM
- IC50 [2, 7]: 15.4 µM
- IC50 [3, 7]: 9.24 µM
- IC50 [4, 7]: 30.6 µM
- IC50 [5, 7]: 27.1 µM

Sequence: LTNKKYRCMA
- IC50 [1, 6]: ≥ 70 µM
- IC50 [2, 6]: 34.8 µM
- IC50 [3, 6]: 5.4 µM
- IC50 [4, 6]: ≥ 70 µM
- IC50 [5, 6]: 16.6 µM

Sequence: KNAGYLVGR
- IC50 [1, 9]: 23 µM
- IC50 [2, 9]: 45.7 µM
- IC50 [3, 9]: ≥ 70 µM
- IC50 [4, 9]: ≥ 70 µM
- IC50 [5, 9]: ≥ 70 µM

Sequence: VIRHVDGKIL
- IC50 [1, 6]: ≥ 70 µM
- IC50 [2, 6]: ≥ 70 µM
- IC50 [3, 6]: 33.4 µM
- IC50 [4, 6]: ≥ 70 µM
- IC50 [5, 6]: ≥ 70 µM

Sequence: PMIIGEPIIV
- IC50 [1, 6]: 26.3 µM
- IC50 [2, 6]: ≥ 70 µM
- IC50 [3, 6]: 8.84 µM
- IC50 [4, 6]: ≥ 70 µM
- IC50 [5, 6]: ≥ 70 µM

Sequence: DILQMREIIT
- IC50 [1, 6]: 31.1 µM
- IC50 [2, 6]: 45.5 µM
- IC50 [3, 6]: 56.2 µM
- IC50 [4, 6]: 17.7 µM
- IC50 [5, 6]: 20.3 µM

Sequence: RVTKRDESSI
- IC50 [1, 6]: 55.9 µM
- IC50 [2, 6]: 12.3 µM
- IC50 [3, 6]: 10.7 µM
- IC50 [4, 6]: 22.2 µM
- IC50 [5, 6]: 8.81 µM

Sequence: PAEMLASI
- IC50 [1, 7]: ≥ 70 µM
- IC50 [2, 7]: ≥ 70 µM
- IC50 [3, 7]: ≥ 70 µM
- IC50 [4, 7]: ≥ 70 µM
- IC50 [5, 7]: ≥ 70 µM

Sequence: LVSKHWELT
- IC50 [1, 6]: ≥ 70 µM
- IC50 [2, 6]: 12.2 µM
- IC50 [3, 6]: 14.9 µM
- IC50 [4, 6]: ≥ 70 µM
- IC50 [5, 6]: ≥ 70 µM

Sequence: TVPSERGL
- IC50 [1, 7]: 52.9 µM
- IC50 [2, 7]: ≥ 70 µM
- IC50 [3, 7]: ≥ 70 µM
- IC50 [4, 7]: ≥ 70 µM
- IC50 [5, 7]: 65 µM

Sequence: TVIKNNMI
- IC50 [1, 7]: ≥ 70 µM
- IC50 [2, 7]: 36 µM
- IC50 [3, 7]: ≥ 70 µM
- IC50 [4, 7]: 67 µM
- IC50 [5, 7]: ≥ 70 µM
